The nature of this series: total protein half-life in vivo (active degradation + dilution); higher = more stable protein.
The mark [1] stands for this setting: E. coli NCM3722 delta-clpP, growth: N-lim chemostat, doubling time 6 h.
Setting [2] is: E. coli NCM3722 delta-hslV, growth: N-lim chemostat, doubling time 6 h.
Setting [3] is: E. coli NCM3722 delta-lon, growth: N-lim chemostat, doubling time 6 h.
Setting [4] is: E. coli NCM3722 delta-smpB, growth: N-lim chemostat, doubling time 6 h.
The mark [5] stands for this setting: wild type E. coli NCM3722, growth: C-lim chemostat, doubling time 3 h.
Where [6] appears, read: wild type E. coli NCM3722, growth: C-lim chemostat, doubling time 6 h.
Setting [7] is: wild type E. coli NCM3722, growth: C-lim chemostat, doubling time 12 h.
The mark [8] stands for this setting: wild type E. coli NCM3722, growth: N-lim chemostat, doubling time 6 h.
Where [9] appears, read: wild type E. coli NCM3722, growth: N-lim chemostat, doubling time 12 h.
[10] abbreviates: wild type E. coli NCM3722, growth: P-lim chemostat, doubling time 6 h.
[11] abbreviates: wild type E. coli NCM3722, growth: P-lim chemostat, doubling time 12 h.
The mark [12] stands for this setting: E. coli NCM3722 delta-clpP delta-lon delta-hslV, growth: N-lim chemostat, doubling time 6 h.

± gives the standard deviation of the averaged measurements.

Regarding “MQSERIYLVWAHPRHDSLTAHIADAIHQRAMERKIQVTELDLYRRNFNPVMTPEDEPDWKNMDKRYSPEVHQLYSELLEHDTLVVVFPLWWYSFPAMLKGYIDRVWNNGLAYGDGHKLPFNKVRWVALVGGDKESFVQMGWEKNISDYLKNMCSYLGIEDADVTFLCNTVVFDGEELHASYYQSLLSQVRDMVDAL”, the “total protein half-life in vivo” value under setting [1] was 4.52 ± 0.47 h; the “total protein half-life in vivo” value under setting [2] was 4 h; the “total protein half-life in vivo” value under setting [3] stood at 4.84 ± 0.22 h; the “total protein half-life in vivo” value under setting [4] is 4.07 ± 0.28 h; the “total protein half-life in vivo” value under setting [5] was found to be 2.98 ± 0.16 h; the “total protein half-life in vivo” value under setting [6] worked out at 6.87 ± 1.5 h. For the same sequence, the “total protein half-life in vivo” value runs as follows: under setting [7], 9.75 ± 0.92 h; under setting [8], 4.62 ± 0.12 h; under setting [9], 7.48 ± 1 h; under setting [10], 5.643 ± 0.052 h; under setting [11], 11.5 ± 1.1 h.
As for “MTDVLLCVGNSMMGDDGAGPLLAEKCAAAPKGNWVVIDGGSAPENDIVAIRELRPTRLLIVDATDMGLNPGEIRIIDPDDIAEMFMMTTHNMPLNYLIDQLKEDIGEVIFLGIQPDIVGFYYPMTQPIKDAVETVYQRLEGWEGNGGFAQLAVEEE [P0AEV9]”, the “total protein half-life in vivo” value is, setting by setting: under setting [12], 4.89 h; under setting [1], 4.16 h; under setting [2], 3.67 ± 0.094 h; under setting [3], 4.17 h; under setting [4], 3.72 ± 0.15 h; under setting [5], 3.29 ± 0.42 h. The “total protein half-life in vivo” value reads like this: under setting [6], 5.01 ± 0.2 h; under setting [7], 8.74 h; under setting [8], 4.6 h; under setting [9], 6.23 h; under setting [11], 9.42 ± 0.22 h.
With “MRHSVLFATAFATLISTQTFAADLPGKGITVNPVQSTITEETFQTLLVSRALEKLGYTVNKPSEVDYNVGYTSLASGDATFTAVNWTPLHDNMYEAAGGDKKFYREGVFVNGAAQGYLIDKKTADQYKITNIAQLKDPKIAKLFDTNGDGKADLTGCNPGWGCEGAINHQLAAYELTNTVTHNQGNYAAMMADTISRYKEGKPVFYYTWTPYWVSNELKPGKDVVWLQVPFSALPGDKNADTKLPNGANYGFPVSTMHIVANKAWAEKNPAAAKLFAIMQLPVADINAQNAIMHDGKASEGDIQGHVDGWIKAHQQQFDGWVNEALAAQK [P0AFM2]”, the “total protein half-life in vivo” value reads like this: under setting [1], 4.96 ± 0.067 h; under setting [2], 6.88 ± 1.4 h; under setting [3], 5.41 h; under setting [4], 5.41 ± 0.17 h; under setting [5], 3.5 ± 0.29 h; under setting [6], 6.36 h. The “total protein half-life in vivo” value under setting [7] amounted to 5.21 h, the “total protein half-life in vivo” value under setting [9] was 11.2 h, the “total protein half-life in vivo” value under setting [10] was found to be 6.38 h and the “total protein half-life in vivo” value under setting [11] was determined as 13.1 h.
Regarding “MNYELLTTENAPVKMWTKGVPVEADARQQLINTAKMPFIFKHIAVMPDVHLGKGSTIGSVIPTKGAIIPAAVGVDIGCGMNALRTALTAEDLPENLAELRQAIETAVPHGRTTGRCKRDKGAWENPPVNVDAKWAELEAGYQWLTQKYPRFLNTNNYKHLGTLGTGNHFIEICLDESDQVWIMLHSGSRGIGNAIGTYFIDLAQKEMQETLETLPSRDLAYFMEGTEYFDDYLKAVAWAQLFASLNRDAMMENVVTALQSITQKTVRQPQTLAMEEINCHHNYVQKEQHFGEEIYVTRKGAVSARAGQYGIIPGSMGAKSFIVRGLGNEESFCSCSHGAGRVMSRTKAKKLFSVEDQIRATAHVECRKDAEVIDEIPMAYKDIDAVMAAQSDLVEVIYTLRQVVCVKG”, the “total protein half-life in vivo” value was determined as 5.37 ± 0.74 h under setting [12]; 1.46 ± 0.41 h under setting [2]; 2.04 ± 0.29 h under setting [3]; 1.46 ± 0.066 h under setting [4]; 1.6 ± 0.19 h under setting [5]; 2.78 ± 0.54 h under setting [6]. Moreover, the “total protein half-life in vivo” value under setting [7] turned out to be 3.19 ± 0.052 h; the “total protein half-life in vivo” value under setting [8] came to 1.73 h; the “total protein half-life in vivo” value under setting [9] stood at 1.67 ± 0.49 h; the “total protein half-life in vivo” value under setting [10] was found to be 1.98 ± 0.61 h; the “total protein half-life in vivo” value under setting [11] is 3.92 ± 0.64 h.
As for “MTQFASPVLHSLLDTDAYKLHMQQAVFHHYYDVHVAAEFRCRGDDLLGIYADAIREQVQAMQHLRLQDDEYQWLSALPFFKADYLNWLREFRFNPEQVTVSNDNGKLDIRLSGPWREVILWEVPLLAVISEMVHRYRSPQADVAQALDTLESKLVDFSALTAGLDMSRFHLMDFGTRRRFSREVQETIVKRLQQESWFVGTSNYDLARRLSLTPMGTQAHEWFQAHQQISPDLANSQRAALAAWLEEYPDQLGIALTDCITMDAFLRDFGVEFASRYQGLRHDSGDPVEWGEKAIAHYEKLGIDPQSKTLVFSDNLDLRKAVELYRHFSSRVQLSFGIGTRLTCDIPQVKPLNIVIKLVECNGKPVAKLSDSPGKTICHDKAFVRALRKAFDLPHIKKAS”, the “total protein half-life in vivo” value was determined as 4.31 ± 1.6 h under setting [12]; 3.07 ± 0.44 h under setting [1]; 2.98 ± 0.068 h under setting [2]; 4.11 ± 0.88 h under setting [3]; 2.95 ± 0.13 h under setting [4]; 2.28 ± 0.31 h under setting [5]. Moreover, the “total protein half-life in vivo” value runs as follows: under setting [6], 4.04 ± 0.27 h; under setting [7], 5.56 ± 0.35 h; under setting [8], 2.92 ± 0.065 h; under setting [9], 4.49 ± 0.41 h; under setting [10], 3.57 ± 0.071 h; under setting [11], 5.37 ± 1 h.
Turning to “MKRSISFRPTLLALVLATNFPVAHAAVPKDMLVIGKAADPQTLDPAVTIDNNDWTVTYPSYQRLVQYKTDGDKGSTDVEGDLASSWKASDDQKEWTFTLKDNAKFADGTPVTAEAVKLSFERLLKIGQGPAEAFPKDLKIDAPDEHTVKFTLSQPFAPFLYTLANDGASIINPAVLKEHAADDARGFLAQNTAGSGPFMLKSWQKGQQLVLVPNPHYPGNKPNFKRVSVKIIGESASRRLQLSRGDIDIADALPVDQLNALKQENKVNVAEYPSLRVTYLYLNNSKAPLNQADLRRAISWSTDYQGMVNGILSGNGKQMRGPIPEGMWGYDATAMQYNHDETKAKAEWDKVTSKPTSLTFLYSDNDPNWEPIALATQSSLNKLGIIVKLEKLANATMRDRVGKGDYDIAIGNWSPDFADPYMFMNYWFESDKKGLPGNRSFYENSEVDKLLRNALATTDQTQRTRDYQQAQKIVIDDAAYVYLFQKNYQLAMNKEVKGFVFNPMLEQVFNINTMSK”, the “total protein half-life in vivo” value is, setting by setting: under setting [12], 4.61 ± 0.059 h; under setting [1], 5.72 ± 1.4 h; under setting [2], 5 ± 0.15 h; under setting [3], 5.74 ± 0.097 h; under setting [4], 5.02 ± 0.13 h; under setting [5], 2.73 ± 0.04 h. Moreover, the “total protein half-life in vivo” value under setting [6] came to 4.77 ± 0.049 h; the “total protein half-life in vivo” value under setting [7] amounted to 7.85 ± 0.62 h; the “total protein half-life in vivo” value under setting [8] worked out at 5.26 ± 0.5 h; the “total protein half-life in vivo” value under setting [9] came out at 7.37 ± 0.29 h; the “total protein half-life in vivo” value under setting [11] was 12.42 ± 0.093 h.
On to “MPHNPIRVVVGPANYFSHPGSFNHLHDFFTDEQLSRAVWIYGKRAIAAAQTKLPPAFGLPGAKHILFRGHCSESDVQQLAAESGDDRSVVIGVGGGALLDTAKALARRLGLPFVAVPTIAATCAAWTPLSVWYNDAGQALHYEIFDDANFMVLVEPEIILNAPQQYLLAGIGDTLAKWYEAVVLAPQPETLPLTVRLGINNAQAIRDVLLNSSEQALSDQQNQQLTQSFCDVVDAIIAGGGMVGGLGDRFTRVAAAHAVHNGLTVLPQTEKFLHGTKVAYGILVQSALLGQDDVLAQLTGAYQRFHLPTTLAELEVDINNQAEIDKVIAHTLRPVESIHYLPVTLTPDTLRAAFKKVESFKA”, for which the “total protein half-life in vivo” value under setting [12] was found to be 4.77 ± 0.33 h; the “total protein half-life in vivo” value under setting [1] stood at 4.6 ± 0.098 h; the “total protein half-life in vivo” value under setting [2] came out at 4.1 ± 0.11 h; the “total protein half-life in vivo” value under setting [3] stood at 4.91 ± 0.17 h; the “total protein half-life in vivo” value under setting [4] was determined as 4.21 ± 0.15 h; the “total protein half-life in vivo” value under setting [5] is 2.67 ± 0.1 h. Besides, the “total protein half-life in vivo” value was 5.28 ± 0.084 h under setting [6]; 9.15 ± 1.6 h under setting [7]; 4.38 h under setting [8]; 7.78 h under setting [9]; 5.64 ± 0.28 h under setting [10]; 11.2 ± 0.17 h under setting [11].

Source of the values: the supplement of paper PMC11246515.
